Data on three substances can be found in patent US7294753.

One assay addresses CD80 (UniProt P33681). Put plainly: comparator antibody, sub-head 'Kd'; method and antigen not stated.
Another assay addresses CD23 (UniProt P06734). Described as above.
Assay [1] addresses human macrophage migration inhibitory factor (MIF) (human) (UniProt P14174). Description: cell-based or functional assay.

Chain of CD23 (P06734 48-321 limits assumed): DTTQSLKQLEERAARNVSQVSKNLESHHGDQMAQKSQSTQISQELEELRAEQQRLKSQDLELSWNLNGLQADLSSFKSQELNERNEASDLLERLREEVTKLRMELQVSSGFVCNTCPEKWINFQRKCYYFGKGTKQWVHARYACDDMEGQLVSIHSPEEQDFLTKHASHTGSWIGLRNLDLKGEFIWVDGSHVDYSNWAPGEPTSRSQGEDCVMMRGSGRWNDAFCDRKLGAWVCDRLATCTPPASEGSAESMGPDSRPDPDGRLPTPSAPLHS
Chain of CD80 (P33681 35-242 limits assumed): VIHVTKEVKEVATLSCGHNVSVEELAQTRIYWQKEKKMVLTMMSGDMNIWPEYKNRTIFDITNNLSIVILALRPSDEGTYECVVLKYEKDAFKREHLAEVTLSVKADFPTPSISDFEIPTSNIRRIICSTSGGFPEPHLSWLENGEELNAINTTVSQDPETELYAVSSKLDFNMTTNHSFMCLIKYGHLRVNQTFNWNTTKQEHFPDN
Chain of human macrophage migration inhibitory factor (MIF) (human) (P14174 2-115 limits assumed): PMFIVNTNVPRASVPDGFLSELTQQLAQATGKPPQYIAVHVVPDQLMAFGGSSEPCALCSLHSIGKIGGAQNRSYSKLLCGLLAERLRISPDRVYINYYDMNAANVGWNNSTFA

For the substance IDEC-114 (anti-CD80 mab) (antibody), the Kd in the assay with CD80 came to 2.2 nM. In the case of IDEC-152 (anti-CD23 mab) (antibody), the Kd in the assay with CD23 worked out at 1.2 nM. In assay [1], 2B8 (murine anti-CD20 Mab) (antibody) had a % MIF PPT Activity of 105%.
